# Test results from paper PMC3785249.
# pKd: −log10 of the molar value.
# What was measured:
# [1] = molecular target: S267E/L328F variant of human IgG1 (human); experiment: SPR; Biacore; antibody variants captured on a CM5 chip with immobilised antigen peptide or protein A/G, FcγR injected; kinetic analysis by global fitting with a 1:1 Langmuir model (KD)
# [2] = molecular target: wild-type human IgG1 (human); experiment: SPR; KD for soluble hFcRn at pH 6.0; as described previously (Igawa et al., 2010)
# [3] = molecular target: V12 variant of human IgG1 (human); experiment: as above
# [4] = molecular target: human FcγRIIa^H131, extracellular region (UniProt P12318); experiment: binding screen of single-substitution variants (method not named in legend); conditions: read off a plot
# Sequence of UniProt P12318 (P12318 34-217): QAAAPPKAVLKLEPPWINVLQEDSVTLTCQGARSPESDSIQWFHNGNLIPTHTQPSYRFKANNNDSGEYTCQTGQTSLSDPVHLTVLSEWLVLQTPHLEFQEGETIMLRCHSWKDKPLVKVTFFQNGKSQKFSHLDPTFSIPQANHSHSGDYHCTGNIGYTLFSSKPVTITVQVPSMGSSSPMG
# [5] = molecular target: human FcγRIIb, extracellular region (UniProt P31994); experiment: as above; conditions: read off a plot
# Sequence of UniProt P31994 (P31994 43-217): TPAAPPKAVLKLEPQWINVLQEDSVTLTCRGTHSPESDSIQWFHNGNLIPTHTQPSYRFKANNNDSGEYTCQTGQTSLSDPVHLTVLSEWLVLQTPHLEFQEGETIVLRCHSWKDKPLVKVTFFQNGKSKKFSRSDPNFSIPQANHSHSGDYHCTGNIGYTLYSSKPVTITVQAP
# [6] = molecular target: human FcγRIIa^R131, extracellular region; experiment: as above; conditions: read off a plot
"fold increase in affinity over IgG1, KD (IgG1)/KD (Fc variant) [1]",pKd [2],pKd [3],percent of parent (template antibody = 100) [4],percent of parent (template antibody = 100) [5],percent of parent (template antibody = 100) [6],Substance
864 fold,–,–,–,–,–,"human FcγRIIa^R131, extracellular region (receptor)"
–,5.82,5.85,–,–,–,"recombinant, soluble human FcRn (from UniProt P55899 24-297) (complex)"
–,–,–,15,180,–,wild-type human IgG1 L328E
–,–,–,53,300,190,wild-type human IgG1 L328F
–,–,–,2,210,12,wild-type human IgG1 P238D
–,–,–,100,410,190,wild-type human IgG1 S267E
